# Experimental data from the nanobody polyreactivity screen of Harvey et al. (2022).
# Assay: yeast display, Sf9 membrane polyspecificity reagent, FACS + sequencing; frameworks hold sequencing errors
# How it was run: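 Nanobodies came from a synthetic yeast display library in Saccharomyces cerevisiae BJ5465, induced with galactose for 36–48 hours and stained for 1 hour at 4 °C with 10% biotinylated, detergent-solubilized Sf9 membrane reagent. Cells were enriched on streptavidin microbeads and then FACS-sorted, with low and high (top ~1%) gates set on anti-HA fluorescence for expression and streptavidin fluorescence for reagent binding. Each polyreactivity label reflects the gate a clone came from. Genes were amplified by colony PCR, sequenced by MiSeq 2 × 250 and filtered by CDR length.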
row,Sequence,polyreactivity (PSR sort gate)
1,QVQLVESGGGLVQAGGSLRLGCAASGITFNLYAMGWYRQAPGKERELVAAISRSATSTYYADSVKRRFTISRDNAKNTVYLQMNSLKPEDTAVYYCATRGHYRQTINYWGQGTQVTVSS,high polyreactivity
2,QVQLVESGGGLVQAGGSLRLICAASAITFYDYTMGWYRQAPGKERELVAAISRSGGSTYYADSVKGRFTISRDNAKNTVYLQMNSLKPEETAFYYCADYTHYQPEYDYWGQGTQVTVSS,high polyreactivity
3,QVQLVESGGGLVQAGGSLRLICAASGFIFGYNARGWYRQAPGKERELVAAINWSGGRTYYADSVKGRFTISRDNAKKTVYLQMNRLKPEDTAVDYCNGDGSRRYNYWGQGTQVTVSS,low polyreactivity
4,QVQLVESGGGLVQAGGSLRLICAASGFIFPDYGMGWYRQAPGKERELVAAISRNGVSTYYADSLKRRFTISRDNAKNTVYLQMISLIPEDTAVYYCAARYYRIRRVSKSVYYWGQCTQVTVSS,low polyreactivity
5,QVQLVESGGGLVQAGGSLRLICAASGFIFSRYTMGWYRQAPGKERELVAAISKRGGSTYYADSVKGRFTISRDNAKNTVYLQMNSLKPEDTAVYYCAADRLPSGSLVEYWGQGTQVTVSS,high polyreactivity
6,QVQLVESGGGLVQAGGSLRLICAASGFIFSSNAMGWYRQAPGKERELVAAITRSGGSTYYADSVKGRFTISRDNAKNTVYLQMNSLKPEDTAVYYCNAYVWRSGYDYWGQGTQVTVSS,high polyreactivity
7,QVQLVESGGGLVQAGGSLRLICAASGFIFTANVMGWYRQAPGKERELVAAISRSGGSTYYADSVKGRFTISRDNAKNTVYLQMNSLKPEDTAVYYCAKLRRDARYDYWGQGTQVTVSS,high polyreactivity
8,QVQLVESGGGLVQAGGSLRLICAASGFIFVDNAMGWYRQAPGKERELVAAITSGASTYYADSVKGRFTISRDNAKITVYLQMNSLKPEDTAVYYCAADYLYYYTWYNYWGQGTQVTVSS,low polyreactivity
9,QVQLVESGGGLVQAGGSLRLICAASGFIFWFYAMGWYRQAPGKERELVASISASGGSTNYADSVKGRFTISRDKAKNTVYLQMNSLKPEDTAVYYCAARKRYQRGYWGQGTQVTVSS,high polyreactivity
10,QVQLVESGGGLVQAGGSLRLICAASGFILKPNAMGWYRQAPGKERELVAAISWSSGSTYYADSVKGRFTISRDNAKNTVYLQMNSLKPEDTAVYYCAADYFVYPVDWYDYWGQGTQVTVSS,low polyreactivity
11,QVQLVESGGGLVQAGGSLRLICAASGFNFQRYAMGWYIQAPGKERELVATISNSGGRTYYADSVKGRFTISRDNAKNTVYLQMNSLKPEDTAVYYCAAGKPYSSYWSWGYWSNLEDDYWGQGTQVTVSS,high polyreactivity
12,QVQLVESGGGLVQAGGSLRLICAASGFTFASNDMGWYRQAPGKERELVAAITKGGGRTYYADSVKGRFTISRDNAKNTVYFQMNSLKPEETAVYYCAGRQLIKYDYWGQGTQVTVSS,low polyreactivity
13,QVQLVESGGGLVQAGGSLRLICAASGFTFDYNAMGWYRPAPVKERELVAAISGSGGSTFYADSVKGRFTISRDNAKNTVYLQMNSLKPEDTAVYYCNVYQHDDDFDYWGQGTQVTVSS,low polyreactivity
14,QVQLVESGGGLVQAGGSLRLICAASGFTFLVYAMAWDRQAPGKERELVAAIRWRGGSTYADSLKGRFTISRDNAKNTVYLQMYSLKPEDTAVYYCAAANRYYVSPRVYYWGQGTQVTVSS,high polyreactivity
15,QVQLVESGGGLVQAGGSLRLICAASGFTFNFYAMGWYRQAPGKEMELVASITSSGARTYYADSVKGRFTISRDNAKNSVYLQMNSQKPEDTAVYYCAARVYRYSASRAYDYWGQGTQVTVSS,high polyreactivity
16,QVQLVESGGGLVQAGGSLRLICAASGFTFSKYGMVWYRQAPGKERELVAAISGSGGNTYYADSVKGRFTISRDNAKNTVYLLINSLKPEDTAVYYCNATWELLSYYYLFWGYDYWGQGTQVTVSS,low polyreactivity
17,QVQLVESGGGLVQAGGSLRLICAASGFTLYAYAMGWYRQAPGKERELVAAISDSGGDTYYADSVKGRFTISRDNAKNTVYLQMNSLKPEDTAVYYCAALYNHWWEYDYWGQGTQVTVSS,low polyreactivity
18,QVQLVESGGGLVQAGGSLRLICAASGFTYRGYAMGWYRQAPGKERELVAAISSSVGSTYYADAVKGRFTISRDNAKNTVYLQKISLKPEDTAVYYCAARKGYVIRYNYWGQGTQVTVSS,high polyreactivity
19,QVQLVESGGGLVQAGGSLRLICAASGGTFSHNDMGWYRQAPGKEMELVASINSGGSTNYADSVKGRFTISRDNAKNTVYLQMNSLKPEDSAVYYCAADVEGWTVESDVYRVGYDYWGHGTQVTVSS,low polyreactivity
20,QVQLVESGGGLVQAGGSLRLICAASGIIFAYNAMGWYRQAPGKESELVAAISVIGGTTYYADSVKGRFTMSRDNAKNTVYLRMNSLKPEDSAVYYCAVDSVQYGGGYERLHELYYWGQGTQVTVSS,low polyreactivity
21,QVQLVESGGGLVQAGGSLRLICAASGIIFDSYAMGWYSQEPGKERELVAAITSDSGRTYYADSVKGRFTISRDNAKNNVYLEMNSLKPEDTAVYYCAKRWDGPYDYWGQGTQVTVSS,low polyreactivity
22,QVQLVESGGGLVQAGGSLRLICAASGIIFDVYAMGWYRQAPGKERELVAAISYGGGTTYYADSVKGRFTISRDNAKNTVYLQMNSLKPEDTAVYYCAADSYRSIGDDYWGQGTQVTVSS,high polyreactivity

row,Sequence,polyreactivity (PSR sort gate)
1,QVQLVESGGGLVQAGGSLRLICAASGIIFSEYAMGWYRQAPGKERELVAVITSGGSTYYADSVKGRFTISRDNAKNTVYLQMNSLKPEDTAVYYCAARGYRYPMYWGQGTQVTVSS,high polyreactivity
2,QVQLVESGGGLVQAGGSLRLICAASGIIFVRYVMGWYRQAPGKEMELVAAINWSGGSTYYADSVKGRFTISRDNAKYTVYLQMNSLKPEDTAVYFCCAGSARDDDYWGQGTQVTVSS,high polyreactivity
3,QVQLVESGGGLVQAGGSLRLICAASGITFRLNVMGWDRQAPGKERELVARISRAGSTKYADSVKGRFTISRDNAKNTVYLQMNCLKPEDTAVYYCNRYYRRATKVGYWGQGTQVTVSS,high polyreactivity
4,QVQLVESGGGLVQAGGSLRLICAASGITFYDYAMGWYRQAPGKERELVAVITRRGGSTYYADSVKGRFTISRDNAKNTVYLQMNSLKPEDTAVYYCAADWRGWSFVRGDDYWGQGTQVTVSS,high polyreactivity
5,QVQLVESGGGLVQAGGSLRLICAASGLIFAVYAMGWYRQAPGKERELVAGISASAASTYYADSVKGRFTISRDNAKNTVFLQMNSLNPEDTAVYYCAADFYWFWTYGTLWYGYEYWGLGTQVTVSS,high polyreactivity
6,QVQLVESGGGLVQAGGSLRLICAASGLIFDYYRMGWYRQATGKQRELVAAITSSGSRTYYADSVKGRFTISRDNAKKTVYLQMNSLNPEDTAVYFCARGGGRRKGLVDYWGQGTQVTVSS,low polyreactivity
7,QVQLVESGGGLVQAGGSLRLICAASGLIFYRYAMGWYRPEPGKERELVAVISRGGSTFYADSVKGRFTISRDNAKNTVYLQMNSLTPEDTAVYFCAAAQTSQAYRYWYYYWGQGTQVTVSW,high polyreactivity
8,QVQLVESGGGLVQAGGSLRLICAASGLTFGWYAMGWYRQAPGKERELVAAITYDGDSTYYADSVKGRFTISRDNAKNTVYLQMNSLKPEDTAVYYCAAEYGYGEMDSWGQGTQVTVSS,high polyreactivity
9,QVQLVESGGGLVQAGGSLRLICAASGLTFTPNAMGWYRQAPWKEREFVAAITWRGGRTYYADSVKGRFTISRDNAKNTVYLQMNSLKPEDTAVYYCAVTYRPTDQLDYWGQGTQVTVSS,high polyreactivity
10,QVQLVESGGGLVQAGGSLRLICAASGLTFVTYAMGWYRQAPGKERELVAAITWSVGGTTYYADSVKGRFTISRDNAKNTVYLQMNSLKPEDTAVYYCAAESYSYYYDYYYWGQGTQVTVSS,high polyreactivity
11,QVQLVESGGGLVQAGGSLRLICAASGNIFAVYAMGWYRQAPGKERELVAAITTGTNTYADSVKGRFTISRDNAKNNVYLQMNSLKPEDTAVYFCAARYYRPLDYWGQGTQVTVSS,low polyreactivity
12,QVQLVESGGGLVQAGGSLRLICAASGNIFYIYAMVWDRQAPWKERELVAAISWSCCSTYYADSVKGRFTISRDNAKNTVYCQMNSLKPEDTSVYYCDVEFTPKRWVSYRTMYSWGQGTQVTVSS,high polyreactivity
13,QVQLVESGGGLVQAGGSLRLICAASGNTFYGYAMGWYRQAPGKERELVASITLSGDSTYYADSVKGRFTISRDNAKNTVYVQMNSLKPEDTAVYYCAGVYTYPLGYYHDTYDYWGQGTQVTVSS,low polyreactivity
14,QVQLVESGGGLVQAGGSLRLICAASGRIFGPYAMGWYRQAPGKERELVASISYSGGSTYYADSVKGRFTISRDNAKNTVYLQMNSLKPDDTAVYYCAKGGYWRGYNYWGQGTQVTVSS,low polyreactivity
15,QVQLVESGGGLVQAGGSLRLICAASGRIFHYYMGWYRQAPGKEMELVAVISSGDGTYYADSVKGRFTISRDNAKYTFYLQMNSLKPEDTAVYYWAADAPREYDDHYKYDDDYCGQGTQVTVSS,low polyreactivity
16,QVQLVESGGGLVQAGGSLRLICAASGRIFIYYAMGWYRQAPGKERELVAAITGRDGSTYYADSVKGRFTISRDNAKNTVDLQKISLKPEDTAVYYCAASRFYFRRTFGGYPKLASYDYWGQGTQVTVSS,low polyreactivity
17,QVQLVESGGGLVQAGGSLRLICAASGRIFPGYTMGWYRQAPGKEREFFAAISYSGGSTYADSVKGRFTISRDNAKNTVYLQMNSLKPEDTAVYYCAVVLQHWLDMYYWGQVTQVTVSS,low polyreactivity
18,QVQLVESGGGLVQAGGSLRLICAASGRIFQIYAMGWYRQAPGKEREVVAAISSGGTTYYADSVKGRFTISRDNAKNTVYLQMNSLKPEDTAVYYCAAVAWDLYSDGQEYNYWGQGPQVTVSS,high polyreactivity
19,QVQLVESGGGLVQAGGSLRLICAASGRIFRGYVMGWYRQAPGKERELVASIDRSGASTYYADSVKGRFTISRDNAKNTVYLQMNSLKPEDTAVYYCNALVYLRTSRYYYWGQGTQVTVSS,high polyreactivity
20,QVQLVESGGGLVQAGGSLRLICAASGRIFRRNVMGWYRQAPGKDRELVAAIRGTGSTTYADSVKGRFTISRDNAKNTVYLQMNSLKPEDTAVYYCNAYKGQTGGGGRYGYWGQGTQVTVSS,high polyreactivity
21,QVQLVESGGGLVQAGGSLRLICAASGRIFRVNAMGWYIQAPGKERELVAGITWSGGSTYYADSVKGRFTISRDNAKNTVYLQMNSLQPEDTAVYSCNAEYSPSYLFYWYEYIYWGQGSQVTVSS,high polyreactivity
